Reference: paper PMC8009872, “Beam image-shift accelerated data acquisition for near-atomic resolution single-particle cryo-electron tomography” (Nature Communications, 2021)

Target: the molecule itself
Assay: cryo-EM structure

B1: protein VC1979 of Vibrio cholerae (dNTPase) (enzyme)
chain: QVSLNPEWLARNNDEHKIRRNDHRSPFQRDRARILHSAAFRRLQAKTQVHGTSLNDFHRTRLTHSLEAAQIGTGIVAQIKLKQPEFRELLPSDSLIDSLCLAHDIGHPPYGHGGEIALNYMMRDHGGFEGNAQTFRIVTSLEPYTEHHGMNLSRRTLLGLLKYPALLSATRAAIPPPAVAHQRQLKAKDWSPAKGIYDCDLASLDWVLEPLCESDRELLGQMRAEPSSPKEHRKTRFKSLDCSIMELADDIAYGVHDLEDAIVLGMVTRAQWQEAAAAQLAECGDPWFEEHIAELSEMLFSGKHYVRKDAIGGIVNALLTSISVKPVEAPFHNELLAFNAYIEPHMGNALEVLKHFVSQYVIQIPQVQRFEYKGQQLIMDLFEALSADPERLLPQATGEKWRKAQEQDEGMRVICDYIAAMTDAYAQRLHQQLFSAQSHY
stoichiometry N: 6
